Experimental data reported in article PMC5761276.

What was measured:
[1] = molecular target: LAT-FYFF (monovalent LAT1Y, residue 48-233), phosphorylated (UniProt O43561); assay: ITC
[2] = molecular target: LAT-FYFF (monovalent LAT1Y, residue 48-233), phosphorylated (UniProt O43561); assay: single-molecule dwell time analysis

Sequence of Grb2-Alexa Fluor 647 (P62993 whole entry): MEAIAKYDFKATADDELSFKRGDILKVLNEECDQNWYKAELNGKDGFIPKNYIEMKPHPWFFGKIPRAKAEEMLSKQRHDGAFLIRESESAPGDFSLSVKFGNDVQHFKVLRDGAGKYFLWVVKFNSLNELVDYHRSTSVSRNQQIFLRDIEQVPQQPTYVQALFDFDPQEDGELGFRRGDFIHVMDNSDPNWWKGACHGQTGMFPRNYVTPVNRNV

Question: For “Grb2-Alexa Fluor 647 (from UniProt P62993 1-217) (natural protein)”, which Kd [1] is on record?
Answer: 463 nM

Question: And the dH [1]?
Answer: -15 kcal/mol

Question: What about the koff [2] of the same substance?
Answer: 3.4 s⁻¹

Question: And the relative on-rate (against LAT-FFFY:Grb2 = 1) [2]?
Answer: 1.25
